The values that follow come from paper PMC3879576.

The target in assay [1] is Bet v 1a Y5C mutant (birch) (UniProt P15494). Put plainly: SEC; Superdex 75 size exclusion chromatography (gel filtration) separating monomeric and dimeric forms.
For assay [2] the target is unchanged. The assay is described as follows: not stated; analysis of purified Bet v 1a Y5C; method of the analysis not named; similar redox sensitivity as the dimer of the WT preparation.
Assay [3] has as its target dimeric Bet v 1a purified from the WT Bet v 1a preparation, with cysteine incorporated at position 5 instead of the encoded tyrosine (birch) (UniProt P15494). The assay is described as follows: SEC; Superdex 75 size exclusion chromatography (gel filtration) separating monomeric and dimeric forms.

As to “Bet v 1a Y5C mutant (from UniProt P15494 1-160) (natural protein)”, in assay [1], the stoichiometry N amounted to 2. This substance registered a percent dimerization in assay [2] of 90%. Consider “dimeric Bet v 1a purified from the WT Bet v 1a preparation, with cysteine incorporated at position 5 instead of the encoded tyrosine (from UniProt P15494 1-160) (natural protein)”, for which, in assay [3], the stoichiometry N was 2.
